Holding throughout (format): biochemical
What all share (conditions): purified CHI in 50 mM PBS, 100 μM substrate, 25° C.

The nature of series [1]: Specific activity of purified CHI, absorbance decrease at 384 nm, homoeriodictyol chalcone. The procedure:
(§1) E. coli BL21 (DE3) cells containing one of the pET28b plasmids from Table 2 or Table 3 were used to inoculate 1 L LB medium at OD of 0.1. Cells were incubated at 37° C., 250 rpm until the OD reached 0.4-0.6 and induced by supplementing with 0.1 mM IPTG. After protein expression at 28° C., 250 rpm for 16 h, the cells were harvested by centrifugation at 4,000×g for 15 min. The harvested cells were lysed with 0.5 mg/mL lysozyme (Sigma-Aldrich), 0.4 U/mL Benzonase (Sigma-Aldrich) and BugBuster (Merck) at room temperature for 0.5 h to obtain a crude cell extract. The crude extract was centrifuged at 10,000×g for 30 min to remove the pellet. Recombinant proteins were purified by Ni-affinity chromatography (GE Healthcare). The supernatant of the crude extract was loaded on the column with 20 mM imidazole. The column was washed by 5 column volumes of 30 mM imidazole with 20 mM PBS (pH 7.4) and 500 mM NaCl. The target proteins were eluted by 150 mM imidazole with 20 mM PBS (pH 7.4) and 500 mM NaCl. Buffer exchange with 50 mM PBS (pH 7.5) was achieved by ultrafiltration with Amicon Ultra-15 (Merck). The activity of the respective purified enzyme was determined by measuring the absorbance decrease at 384 nm in the reaction mix (CHI in 50 mM PBS with 100 μM of either naringenin chalcone, hesperetin chalcone, eriodictyol chalcone, homoeriodictyol chalcone or 4-O-methyl butein at 25° C.).

The nature of series [2]: Specific activity of purified CHI, absorbance decrease at 384 nm, eriodictyol chalcone. The procedure:
as §1

Series [3] in a line: Specific activity of purified CHI, absorbance decrease at 384 nm, hesperetin chalcone. The procedure: as §1
Series [4] in a line: Specific activity of purified CHI, absorbance decrease at 384 nm, 4-O-methyl butein. Here is the method: as §1
Series [5] can be described thus: Specific activity of purified CHI, absorbance decrease at 384 nm, naringenin chalcone. Here is the method:
as §1

The values below come from patent publication US20240150797A1, “BIOCATALYTICAL PRODUCTION OF DIHYDROCHALCONES” (Symrise AG, priority 2021, published 2024).

B1: CHI4: Chalcone isomerase from Acetoanaerobium noterae, access no. WP_079589066.1 (protein, listed as Acetoanaerobium noterae)
chain: ADFEFNPMRSLIYVDVVKEDYRHMLKHWLYRHHIPDSISQFGPYVTKYAFYPALPTPPEGDRFGTIRMQLTEHYWTVNPFTSNFKNKAFTEFFPIDILKWQGNIPDDSKVAALEGEEVVKLEGDDARASGGDNGCPPFIFAFVPICWEEDFKGSQRTVEDGPNYRWQFVMKYPEGVTMKEGDKWFYEEMIPKFKDMPDVLRILSSKIIQQVNGCPYHRVVEMWFNCPSAWYRSAVEKAKEIKKPSWAKYDVFPYLKPKFEIASLFLTDIAESDNYSQYRGYITMR
In the case of B1, the “Specific activity, Homoeriodctiol chalcone” value in series [1] stood at 15.2. Further, the “Specific activity, Eriodictyol chalcone” value in series [2] is listed as 34.4. Besides, the “Specific activity, Hesperetin chalcone” value in series [3] was 58.5. Further, the “Specific activity, 4-O-methyl butein” value in series [4] worked out at 0.4. The “Specific activity, Naringenin chalcone” value in series [5] is given as 46.6.

B2: CHI2: Chalcone isomerase from Tepidanaerobacter acetatoxydans, access no. WP_013779275.1 (protein)
chain: DTEFKPMRSLIYVGVAKEEYRHKLKNWLYRYHIPDSISQFAPYVTKYAFYNALPVPPEGERFGAYNMQLTEHYWLINPMNPQLKIKAFTEFFPVDVLKWQGNIPDDADADSVNIEGDAARSSGGDNGMPPFIFAFIPFWWEEDFKGAGRTVEDGPNYRWQFLIQYPNGISLEEGDQWFYKKLVPAFKEMPEVNRFLTSRVIRDVNDCQFHRVIEMWFDGPEEWYRAAVEKGKSIERPHWATAEEFPYLKPKFQIASLFLTDIADSDNYSQYRGYITMR
modifications: Tepidanaerobacter acetatoxydans
On to B2, for which the “Specific activity, Homoeriodctiol chalcone” value in series [1] worked out at 19.9. For the same molecule, the “Specific activity, Eriodictyol chalcone” value in series [2] turned out to be 25.4. For the same molecule, the “Specific activity, Hesperetin chalcone” value in series [3] was determined as 93.5. Also, the “Specific activity, 4-O-methyl butein” value in series [4] is 0.8. Also, the “Specific activity, Naringenin chalcone” value in series [5] was determined as 54.8.

B3: CHI5: Chalcone isomerase from Parasporobacterium paucivorans, access no. WP_073993359.1 (protein)
chain: GPEFQPMRSLIYVDCVKEEYRHRLQNWLYHYHVPDSISQFAPYVSKYCFYNALPTPPEGERFGTIRQQLTEHYWMVNPFTEHFKNKALTEYFPCDVLKWQGNIPDDDLEVNFEGDEARSKGGHNGCAPFIFAFLPLCWEEDFKGKERTIENGPNYRWNFVMKYPEGTSMEEGDKWFYEKMIPAFQEMPEVTRILTSKVIQSINGCAFHRVVEMWFDGPNAWYQAAVVKAKNIEKPSWASVDAFPYLQATFEFDGIFLTDYAASDNMSQYRGYLAMR
modifications: Parasporobacterium paucivorans
As to B3, the “Specific activity, Homoeriodctiol chalcone” value in series [1] was determined as 19.7. In series [2], the “Specific activity, Eriodictyol chalcone” value is 82.7. Further, the “Specific activity, Hesperetin chalcone” value in series [3] worked out at 84.5. Moreover, the “Specific activity, 4-O-methyl butein” value in series [4] amounted to 0.4. Also, the “Specific activity, Naringenin chalcone” value in series [5] amounted to 59.9.

B4: CHI8: Chalcone isomerase from Roseburia sp., access no. SCJ10619.1 (protein, listed as Roseburia sp.)
chain: RSLIYVDVAKEQYRVKLNHWLYAVHVPESISKFRPYVSQYAFYNALPVPPLGEQFGTVRMQLTEHYWQVNPMDVSMAVNVFTETFPTEVLIWQGNMPENAIALNYEGDEARSAKVENCNPFVFAFLPISWEEDLKGAGRTMADGPNYRWNFALHYPDGVSVETGDQWFYEKFVPAFLEIPEATRMVTSKIIKEINDCPMDRVVEIWFEGPDQWSAAMEKAKSIEPPEWAQEETFPYLKPYQNIMGVFVADNISSDNLNNHRGYITMR
On to B4, for which, in series [1], the “Specific activity, Homoeriodctiol chalcone” value was found to be 22.8. In series [2], the “Specific activity, Eriodictyol chalcone” value was 33.9. In series [3], the “Specific activity, Hesperetin chalcone” value is recorded as 19.2. Moreover, the “Specific activity, 4-O-methyl butein” value in series [4] is 1.2. The “Specific activity, Naringenin chalcone” value in series [5] is reported as 73.5.

B5: CHI12: Chalcone isomerase from Holophaga foetida, access no. WP_005036737.1 (protein, listed as Holophaga foetida)
chain: TVEFCPMRSLIYVGLSKEKYRHLLQNWLYRIHIPDSISQFGPYVTKYAFYNALPVPPEGERFGTIKMQLTEHYWQCNPFQQAVAVKTFKEVFPIDVLRWQGNMPDESDGAVELEGDEARSAKGGQGAKPFIFAFVPLWWEEDIKGKMRTIADGPNYRWQFVMKYPEGVSQEQGDKWFLEEVAPAFAAMPEVNRILSSKIIQNVNGCSFNRVVEMWFDGPDEWYAAAVTKAAALPKPTWAKQDKFPFLASDYEFASVFLTDYATSDNLSQYRGYITLR
For B5, in series [2], the “Specific activity, Eriodictyol chalcone” value was 28.2. In addition, the “Specific activity, Hesperetin chalcone” value in series [3] was 36.5. Also, the “Specific activity, 4-O-methyl butein” value in series [4] was found to be 0.2. Further, in series [5], the “Specific activity, Naringenin chalcone” value worked out at 32.4.

B6: CHIera: Chalcone isomerase from Eubacterium ramulus (protein, listed as Eubacterium ramulus)
chain: ADFKFEPMRSLIYVDCVSEDYRPKLQRWIYKVHIPDSISQFEPYVTKYAFYPSFPIPPQGDRFGYARMQLTEHHWLVSDLDPRLEIKAIAETFPMDVLVWQGQIPAAAHTDAQIDSDGDAGNAARKSNNAEGNPFIFAFLPMWWEKDLKGKGRTIEDGANYRFNMTIGFPEGVDKAEGEKWLFEKVVPILQAAPECTRVLASAVKKDINGCVMDWVLEIWFENQSGWYKVMVDDMKALEKPSWAQQDAFPFLKPYHNVCSAAVADYTPSNNLANYRGYITMR
With B6, the “Specific activity, Homoeriodctiol chalcone” value in series [1] is reported as 44.5. Moreover, the “Specific activity, Eriodictyol chalcone” value in series [2] worked out at 90.7. The “Specific activity, Hesperetin chalcone” value in series [3] was determined as 31.5. The “Specific activity, 4-O-methyl butein” value in series [4] is given as 0.1. Besides, in series [5], the “Specific activity, Naringenin chalcone” value is reported as 270.0.

B7: CHI1: Chalcone isomerase from Fusibacter sp. 3D3, access no. WP_069876268.1 (protein)
chain: SYVPEFKPMRSFILNNVRSDNDRPKAFRWLYKQHVPESISQFRPYCTKYATYHALPLVEGAEQFGTYNWIMTEHYWNFNIFQDKGLGHSRGLAFTEAYPHDFMEITCQPPSNTLRQSGWQGSAEGYHPIVFCFAPIFWENDFKGSERLTDDGANFRWLFFLSYPEGVTVEEGDQWFLETFAKEAAEMPEVIRFLSSRVMDSPRINPFDRIVELWFDDSEAWHNAMVKNGHLFTKPAWSKVDQFPFFEAYKDITGVFIMDRPDSDHLAQWQGYITTR
modifications: Fusibacter sp. 3D3
B7: the “Specific activity, Homoeriodctiol chalcone” value in series [1] is recorded as 11.3. The “Specific activity, Eriodictyol chalcone” value in series [2] came out at 18.2. In series [3], the “Specific activity, Hesperetin chalcone” value was found to be 16.7. In series [4], the “Specific activity, 4-O-methyl butein” value was determined as 0.2. In series [5], the “Specific activity, Naringenin chalcone” value came to 21.3.

B8: CHI6: Chalcone isomerase from Lachnoclostridium sp., access no. HCD45524.1 (protein, listed as Lachnoclostridium sp.)
chain: GTEFDPMRSFIYVDVIKEEYRHKLQHWLYFHHIPESISQFEPYCTKYAFYNALPVPEGGERFGTARMQITEHSWLVNIMDPALKVKAFQEYMPIEALKWQGTVPETAGDVLMSGDDARCTGGNNGCMPFVFAFCPMWWEEDVKGAGRTLTEGANYRWNFALTYPEGISKEEGDKWLFEEVFPYFEANNCCTRILTSKVRQEINGCPMYRVVEMWFTGPTAWHHLAVETADKIKSPSWAKDGDVFPYLKSGFEIRGAFVTDYPTCDAYSQYRGYIPRR
For the molecule B8, in series [1], the “Specific activity, Homoeriodctiol chalcone” value is given as 8.1. Moreover, in series [2], the “Specific activity, Eriodictyol chalcone” value is reported as 17.0. Further, the “Specific activity, Hesperetin chalcone” value in series [3] is given as 3.3. The “Specific activity, 4-O-methyl butein” value in series [4] is 0.1. In addition, the “Specific activity, Naringenin chalcone” value in series [5] came out at 16.8.

B9: CHI9: Chalcone isomerase from Roseburia sp. OM02-15, access no. WP_118702262.1 (protein)
chain: GEITYQPLRSLIYVDCVKEEYRHKLQHWLYYYHAPESIAKFEPWVTKYAFYNALPTPPQGERFGTYRMQLTEHYWMVNPMSQESLVNSLNEYFPIDAMIWQGTLPENAKEDGFMADGEAARASGGDNGCPPFIFAFLPIFWEQDLKGAGRTMVDGPNYRWQFLVSYPEGHKEDGDQWMMNEVLPAFAAMPEVTRMMTSKVKKEINNCHMDRCVEMWFDGPEEWYHCAVENAASFKKPEWAEYDNFPYLRPQFQFASLFLTDIATSDNLKQYRGYLPMR
modifications: Roseburia sp. OM02-15
Consider B9, for which, in series [1], the “Specific activity, Homoeriodctiol chalcone” value was found to be 10.4. For the same molecule, in series [2], the “Specific activity, Eriodictyol chalcone” value was found to be 69.7. Besides, in series [3], the “Specific activity, Hesperetin chalcone” value is reported as 43.0. Moreover, the “Specific activity, 4-O-methyl butein” value in series [4] amounted to 0.4. The “Specific activity, Naringenin chalcone” value in series [5] was 22.7.
